Assay results as given in patent US9931401B2, “Combination comprising anti-fibroblast growth factor receptor 2 (FGFR2) antibody and a tyrosine kinase inhibitor” (Daiichi Sankyo Company, Limited, priority 2013, dated 2018).
Residue numbers refer to the chain shown, from its start.

B1: FR2-10: anti-human FGFR2 rat monoclonal antibody obtained by the method described in Example 1; VH SEQ ID NO: 12, VL SEQ ID NO: 21 (antibody, listed as Rattus norvegicus, V domains shown)
VH: EVQLVESGGGLVQPGRSLKLSCVASGFRFNDFWMTWIRQAPGKGLEWVASITYTGDNTYYAGSVKGRITISRDNAKSTLYLQMNSLRSEDTATYYCTRDDYGGYSPYYMDAWGQGTSVTVSS
VL: DIQMTQSPSSLSAFLGDRVTITCRASQDIGNYLRWFQQKPGKSPRLMIYGATNLANGVPSRFSGSRSGSDYSLTINNLESEDMAIYYCLKHNEYPFTFGSGTKLEIKRA
B2: FR2-13: anti-human FGFR2 rat monoclonal antibody obtained by the method described in Example 1; VH SEQ ID NO: 14, VL SEQ ID NO: 24 (antibody, listed as Rattus norvegicus, V domains shown)
VH: QVKLLQSGAELVKPGASVKLSCKTSGFTFSTSYMSWLKQVPGPSIEWIGWIYAGDGGTKYNQKFKGKATLTVDKSSSTAYMDLSSLTSEDAAVYFCATDGYGDWFAYWGQGTLVTVSS
VL: DIQMTQSPASLSASLGETVTIECRASEDIYSNLAWYQQKPGNSPQLLIYDANILADGVPSRFSGSGSGTQYSLKINSLQSEDVASYFCQQYNNYPPFTFGVGTKLELKRA
B3: FR2-14: anti-human FGFR2 rat monoclonal antibody obtained by the method described in Example 1; VH SEQ ID NO: 16, VL SEQ ID NO: 26 (antibody, listed as Rattus norvegicus, V domains shown)
VH: B2 VH with I45T, S75F, A106T
VL: B2 VL with V101A

Molecular target: T1, human FGFR2 IIIb (Homo sapiens, UniProt P21802)
T1 construct: expressed in transfected cells; host or cells: 293α cells (HEK293 stably transfected with integrin αv and β3)
Test: Elk1 luciferase reporter gene assay, FGFR2 IIIb-expressing 293α cells, ligand FGF7
Assay type: cell-based
Conditions: antibody preincubated 1 hour; FGF7 10 ng/ml, 6 hours
Procedure: In order to evaluate the signal-neutralizing effect of the anti-FGFR2 antibody produced by each obtained hybridoma, an Elk1 luciferase reporter gene assay system for detecting ERK (extracellular signal-regulated kinase) activation induced by FGFR2 activation via ligand FGF7 stimulation was constructed by a method shown below and used in the evaluation of the obtained antibody for its effect.
The Elk1 luciferase reporter gene assay was carried out using each hybridoma culture supernatant selected in Example 1)-5. A cell line 293α, which was HEK293 cells stably transfected with integrin αv and integrin β3 expression vectors, was transiently cotransfected with pcDNA-DEST40-FGFR2 IIIb or pcDNA-DEST40, pFA2-Elk1 (manufactured by Stratagene Corp.), pFR-Luc2CP, and pGL4.74[hRluc/TK] (manufactured by Promega Corp.) according to transfection procedures using Lipofectamine 2000 (manufactured by Invitrogen Corp.), inoculated to a white 96-well cell culture plate (manufactured by Corning Inc.), and cultured overnight at 37° C. under 5% CO2 conditions. On the next day, the culture supernatant was removed, and the hybridoma culture supernatant diluted 5-fold with DMEM containing 5% FBS was added at a concentration of 50 μl/well to the plate. After culture at 37° C. for 1 hour under 5% CO2 conditions, a ligand human FGF7 (manufactured by R&D systems, Inc.) was added at a final concentration of 10 ng/ml to each well. After incubation for 6 hours, cell lysates were prepared and assayed for firefly luciferase activity (specific signal) and Renilla luciferase activity (signal for normalization) using Dual-luciferase reporter assay system (manufactured by Promega Corp.). The firefly/Renilla ratio was calculated to normalize data on each well.
In order to evaluate the signal-neutralizing effects of the obtained antibodies by the Elk1 luciferase reporter gene assay, 293α cells were cotransfected with pcDNA-DEST40-FGFR2 IIIb or pcDNA-DEST40-FGFR2 IIIc constructed in Example 1)-3-1, pFA2-Elk1 (manufactured by Stratagene Corp.), pFR-Luc2CP, and pGL4.74[hRluc/TK] (manufactured by Promega Corp.) by the method shown in Example 1)-6-2, and cultured overnight at 37° C. under 5% CO2 conditions. On the next day, the culture supernatant was removed, and the cells were then preincubated for 1 hour with the rat FR2-10, FR2-13, or FR2-14 antibody diluted with DMEM containing 2% FBS. Subsequently, a ligand human FGF7 (manufactured by R&D systems, Inc.) or human FGF9 (manufactured by PeproTech Inc.) was added at a final concentration of 10 ng/ml to each well. After incubation for 6 hours, firefly luciferase activity (specific signal) and Renilla luciferase activity (signal for normalization) were assayed using Dual-Glo Luciferase Assay System (manufactured by Promega Corp.). The firefly/Renilla ratio was calculated to normalize data on each well.
In order to evaluate the signal-neutralizing effects of the obtained antibodies by the Elk1 luciferase reporter gene assay, 293α cells were transfected with pcDNA-DEST40-FGFR2 IIIb or pcDNA-DEST40-FGFR2 IIIc constructed in Example 1)-3-1 by the method shown in Example 1)-6-2, and cultured overnight at 37° C. under 5% CO2 conditions. On the next day, the culture supernatant was removed, and the cells were then preincubated for 1 hour with the cFR2-10, cFR2-13, or cFR2-14 antibody (final concentration: 0.05 to 5 μg/ml) diluted with DMEM containing 2% FBS. Subsequently, a ligand human FGF7 (manufactured by R&D systems, Inc.) or human FGF9 (manufactured by PeproTech Inc.) was added at a final concentration of 10 ng/ml to each well. After incubation for 6 hours, cell lysates were prepared and assayed for firefly luciferase activity (specific signal) and Renilla luciferase activity (signal for normalization) using Dual-luciferase reporter assay system (manufactured by Promega Corp.). The firefly/Renilla ratio was calculated to normalize data on each well. […]

T1 sequence (P21802 22-822 isoform P21802-3 limits assumed): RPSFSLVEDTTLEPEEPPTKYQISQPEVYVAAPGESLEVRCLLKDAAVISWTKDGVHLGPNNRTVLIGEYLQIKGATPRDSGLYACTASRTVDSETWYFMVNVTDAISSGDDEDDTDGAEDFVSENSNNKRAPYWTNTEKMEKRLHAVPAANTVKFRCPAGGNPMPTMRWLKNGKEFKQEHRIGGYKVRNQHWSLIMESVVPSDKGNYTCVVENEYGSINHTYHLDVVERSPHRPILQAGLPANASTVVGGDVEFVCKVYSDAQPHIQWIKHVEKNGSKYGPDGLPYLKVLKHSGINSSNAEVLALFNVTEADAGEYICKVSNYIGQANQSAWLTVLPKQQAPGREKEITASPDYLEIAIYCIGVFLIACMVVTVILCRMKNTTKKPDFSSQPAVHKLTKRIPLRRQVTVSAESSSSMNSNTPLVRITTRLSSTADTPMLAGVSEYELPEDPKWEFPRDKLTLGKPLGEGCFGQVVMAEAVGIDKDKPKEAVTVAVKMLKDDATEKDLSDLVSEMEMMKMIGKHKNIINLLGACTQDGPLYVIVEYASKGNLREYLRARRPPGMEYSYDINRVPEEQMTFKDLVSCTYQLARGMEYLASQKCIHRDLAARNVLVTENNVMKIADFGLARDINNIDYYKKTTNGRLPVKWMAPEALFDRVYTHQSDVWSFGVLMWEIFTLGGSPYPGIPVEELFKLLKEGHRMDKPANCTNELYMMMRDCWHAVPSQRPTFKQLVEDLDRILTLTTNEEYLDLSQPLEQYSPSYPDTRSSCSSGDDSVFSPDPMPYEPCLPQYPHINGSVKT

Row | ligand FGF7 dependent reporter activation in the FGFR2 IIIb-expressing cells | Molecule
1 | inhibited | B1
2 | inhibited | B2
3 | inhibited | B3

Same assay, conditions: hybridoma culture supernatant diluted 5-fold; FGF7 10 ng/ml

Row | Molecule | ligand FGF7 dependent reporter activation in FGFR2-expressing HEK293 reporter cells (screening)
4 | B1 | reduced ligand FGF7 dependent reporter activation to a ligand-free level
5 | B2 | reduced ligand FGF7 dependent reporter activation to a ligand-free level
6 | B3 | reduced ligand FGF7 dependent reporter activation to a ligand-free level

Molecular target: T2, human FGFR2 (Homo sapiens, UniProt P21802)
T2 construct: expressed in transfected cells; host or cells: HEK293T cells
Test: Flow cytometry, selective binding to human FGFR expression vector-transfected HEK293T cells
Conditions: hybridoma culture supernatant, FGFR1 IIIc, FGFR2 IIIb, FGFR3 IIIb, FGFR4 transfectants
Procedure: HEK293T cells were inoculated at a density of 5×10^4 cells/cm^2 to a 225-cm^2 flask (manufactured by Sumitomo Bakelite Co., Ltd.) and cultured overnight at 37° C. under 5% CO2 conditions in a DMEM medium containing 10% FBS. On the next day, the pcDNA-DEST40-FGFR2 IIIb IgD1-deletion mutant deficient in the N-terminal IgD1 domain or a control pcDNA-DEST40 was transfected to the HEK293T cells using Lipofectamine 2000, and the cells were further cultured overnight at 37° C. under 5% CO2 conditions. On the next day, the expression vector-transfected HEK293T cells were treated with TrypLE Express (manufactured by Life Technologies Corp.), washed with DMEM containing 10% FBS, and then suspended in PBS containing 5% FBS. The obtained cell suspension was used in flow cytometry analysis.
cDNAs encoding a human FGFR1 IIIc variant protein (isoform 1: NP_075598), a human FGFR3 IIIb variant protein (isoform 3: NP_001156685), a human FGFR3 IIIc variant protein (isoform 1: NP_000133), and a human FGFR4 protein (isoform 1: NP_002002) were cloned into pcDNA-DEST40 vectors to construct vectors pcDNA-DEST40-FGFR1 IIIc, pcDNA-DEST40-FGFR3 IIIb, pcDNA-DEST40-FGFR3 IIIc, and pcDNA-DEST40-FGFR4 for expression of each variant protein, respectively.
Each human FGFR expression vector constructed in Examples 1)-3-1 and 2)-1-1 was transfected to HEK293T cells by the method shown in Example 1)-5-1. The cell suspension was centrifuged to remove the supernatant. Then, these various human FGFR expression vector-transfected HEK293T cells and the pcDNA-DEST40-transfected HEK293T cells were separately suspended by the addition of the hybridoma culture supernatant containing the FR2-10, FR2-13, or FR2-14 antibody and left standing at 4° C. for 1 hour. […] The data was analyzed using Flowjo (manufactured by Tree Star Inc.). After removal of 7-aminoactinomycin D-positive dead cells by gating, the FITC fluorescence intensity of live cells was plotted to a histogram to calculate average fluorescence intensity (MFI).

T2 sequence (P21802 22-822 isoform P21802-3): as the sequence (P21802 22-822 isoform P21802-3 limits assumed) above

Row | Molecule | selective binding activity against human FGFR2
7 | B1 | selectively bind to human FGFR2 IIIb
8 | B2 | selectively bind to both human FGFR2 IIIb and FGFR2 IIIc
9 | B3 | selectively bind to both human FGFR2 IIIb and FGFR2 IIIc
